The target of this assay is T1, il33_human IL33 (UniProt O95760).
T1 sequence: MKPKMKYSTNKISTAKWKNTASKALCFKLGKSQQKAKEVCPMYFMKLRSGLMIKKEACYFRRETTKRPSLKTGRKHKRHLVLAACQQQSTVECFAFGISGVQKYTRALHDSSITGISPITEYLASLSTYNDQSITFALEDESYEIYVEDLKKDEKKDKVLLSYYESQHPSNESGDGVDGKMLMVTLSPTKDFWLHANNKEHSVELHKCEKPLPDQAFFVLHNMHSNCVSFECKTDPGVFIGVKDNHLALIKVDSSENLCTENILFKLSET

Consider “Histone H2A type 1 (Homo sapiens) (from UniProt P0C0S8) E92R”, for which the “effect of a mutation on the interaction” value is given as “decreasing interaction”.

Regarding “Histone H2A type 1 (Homo sapiens) (from UniProt P0C0S8) E93L”, the “effect of a mutation on the interaction” value is on record as “decreasing interaction”.
